The source of these data is patent publication US20180339041A1 (Kyowa Kirin, published 2018).

T1: human Mer forcedly expressed on HEK293F reporter cells (human, UniProt Q12866 21-999)
T1 sequence (looked up): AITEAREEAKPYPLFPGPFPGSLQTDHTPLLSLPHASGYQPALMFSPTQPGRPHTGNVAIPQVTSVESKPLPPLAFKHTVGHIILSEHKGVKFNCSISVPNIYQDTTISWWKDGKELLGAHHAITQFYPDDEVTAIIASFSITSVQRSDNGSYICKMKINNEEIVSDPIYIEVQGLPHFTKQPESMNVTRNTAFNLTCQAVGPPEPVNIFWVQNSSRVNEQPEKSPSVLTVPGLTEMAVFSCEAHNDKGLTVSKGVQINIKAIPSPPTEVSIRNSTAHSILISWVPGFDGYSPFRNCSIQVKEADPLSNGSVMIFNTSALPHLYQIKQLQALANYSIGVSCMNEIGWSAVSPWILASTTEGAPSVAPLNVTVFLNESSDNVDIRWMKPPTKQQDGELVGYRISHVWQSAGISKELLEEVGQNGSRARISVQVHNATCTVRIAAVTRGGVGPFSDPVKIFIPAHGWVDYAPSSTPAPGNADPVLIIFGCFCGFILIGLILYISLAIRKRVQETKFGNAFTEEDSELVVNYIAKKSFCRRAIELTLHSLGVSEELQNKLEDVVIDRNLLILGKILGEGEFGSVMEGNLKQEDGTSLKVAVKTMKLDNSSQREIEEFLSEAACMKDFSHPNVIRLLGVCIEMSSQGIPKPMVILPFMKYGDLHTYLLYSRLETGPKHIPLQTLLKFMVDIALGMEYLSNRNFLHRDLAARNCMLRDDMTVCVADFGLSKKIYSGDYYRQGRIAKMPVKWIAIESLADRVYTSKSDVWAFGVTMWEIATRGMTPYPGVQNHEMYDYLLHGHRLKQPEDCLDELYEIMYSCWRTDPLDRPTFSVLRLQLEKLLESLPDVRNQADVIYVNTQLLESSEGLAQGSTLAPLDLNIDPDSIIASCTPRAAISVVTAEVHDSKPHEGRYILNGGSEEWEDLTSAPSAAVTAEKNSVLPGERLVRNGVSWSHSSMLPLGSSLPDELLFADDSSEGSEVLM

T2: human Sky forcedly expressed on HEK293F reporter cells (human, UniProt Q06418 41-890)
T2 sequence (looked up): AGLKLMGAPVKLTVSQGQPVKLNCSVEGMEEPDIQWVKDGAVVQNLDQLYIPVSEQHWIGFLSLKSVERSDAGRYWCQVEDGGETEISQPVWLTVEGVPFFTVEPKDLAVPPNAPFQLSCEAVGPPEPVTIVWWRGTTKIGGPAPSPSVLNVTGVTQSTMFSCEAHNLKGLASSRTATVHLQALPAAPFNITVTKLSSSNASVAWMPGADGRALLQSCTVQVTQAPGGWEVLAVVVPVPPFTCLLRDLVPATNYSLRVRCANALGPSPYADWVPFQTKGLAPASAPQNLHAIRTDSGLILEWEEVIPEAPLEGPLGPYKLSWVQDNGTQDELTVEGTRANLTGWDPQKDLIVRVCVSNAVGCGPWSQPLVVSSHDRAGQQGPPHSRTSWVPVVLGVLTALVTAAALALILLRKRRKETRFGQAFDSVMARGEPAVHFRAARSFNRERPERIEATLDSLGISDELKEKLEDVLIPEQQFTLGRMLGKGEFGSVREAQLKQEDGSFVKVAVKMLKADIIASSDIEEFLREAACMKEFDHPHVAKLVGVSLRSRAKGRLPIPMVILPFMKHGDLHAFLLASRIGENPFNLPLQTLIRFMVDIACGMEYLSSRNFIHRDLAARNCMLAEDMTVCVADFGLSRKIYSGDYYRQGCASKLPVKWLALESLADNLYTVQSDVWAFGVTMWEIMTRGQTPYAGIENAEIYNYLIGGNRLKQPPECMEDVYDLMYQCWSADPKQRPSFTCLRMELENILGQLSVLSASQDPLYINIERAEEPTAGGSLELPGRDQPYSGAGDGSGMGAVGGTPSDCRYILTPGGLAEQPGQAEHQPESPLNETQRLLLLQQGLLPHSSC

B1: C-terminally FLAG-tagged human Gas6 recombinant protein (hGas6-F) (ligand, not shown: small tags and cut ends)
chain: ALLPAREATQFLRPRQRRAFQVFEEAKQGHLERECVEELCSREEAREVFENDPETDYFYPRYLDCINKYGSPYTKNSGFATCVQNLPDQCTPNPCDRKGTQACQDLMGNFFCLCKAGWGGRLCDKDVNECSQENGGCLQICHNKPGSFHCSCHSGFELSSDGRTCQDIDECADSEACGEARCKNLPGSYSCLCDEGFAYSSQEKACRDVDECLQGRCEQVCVNSPGSYTCHCDGRGGLKLSQDMDTCEDILPCVPFSVAKSVKSLYLGRMFSGTPVIRLRFKRLQPTRLVAEFDFRTFDPEGILLFAGGHQDSTWIVLALRAGRLELQLRYNGVGRVTSSGPVINHGMWQTISVEELARNLVIKVNRDAVMKIAVAGDLFQPERGLYHLNLTVGGIPFHEKDLVQPINPRLDGCMRSWNWLNGEDTTIQETVKVNTRMQCFSVTERGSFYPGSGFAFYSLDYMRTPLDVGTESTWEVEVVAHIRPAADTGVLFALWAPDLRAVPLSVALVDYHSTKKLKKQLVVLAVEHTALALMEIKVCDGQEHVVTVSLRDGEATLEVDGTRGQSEVSAAQLQERLAVLERHLRSPVLTFAGGLPDVPVTSAPVTAFYRGCMTLEVNRRLLDLDEAAYKHSDITAHSCPPVEPAAA
modifications: gamma-carboxylated glutamic acid residues in the Gla domain (producer cells co-express rat VKOR and human GGCX); positions not given
B2: KM5320 chimeric antibody (antibody, V domains shown)
VH: QIQLVQSGPELKKPGETVKISCKASGYTFTNYGMNWVKQAPGKGLKWMGWINTETGEPTYSDDFKGRFAFSLETSATTAYLQINNLRNEDMATYFCAREDGYYGTLDYWGQGTSVTVSS
VL: SIVMTQTPKFLLVSAGDRVTITCKASQSVSNDVAWYQQKPGQSPKVLIYYASNRYTGVPDRFTGSGYGTDFTFTISTVQAEDLAVYFCQQDYSSPWTFGGGTKLEIK
notes: also called KM5320 chimera; A-01

Experiment [1] has as its target T1, human Mer forcedly expressed on HEK293F …. The experiment can be described thus: cell-based or functional assay.
The target in experiment [2] is T2, human Sky forcedly expressed on HEK293F …. The experiment can be described thus: cell-based or functional assay.
Experiment [3] addresses B1. The experiment can be described thus: SPR Biacore T100, captured antibody, Gas6 analyte, first test.
Experiment [4] addresses B1. The experiment can be described thus: ELISA, hGas6-F captured by anti-FLAG, anti-human IgG-HRP. The protocol:
First, 2 μg/mL anti-FLAG antibody [Monoclonal ANTI-FLAG M2 antibody produced in mouse (manufactured by Sigma-Aldrich Co. LLC) diluted with PBS (manufactured by Nacalai Tesque, Inc.)] was dispensed at 50 μL/well to a 96-well plate for ELISA (manufactured by Nalge Nunc International), and the plate was left standing overnight at 4° C. for adsorption. After removal of the immobilization solution, 1% BSA-PBS (manufactured by Nacalai Tesque, Inc.) was added thereto at 300 μL/well, and the plate was left standing at room temperature for 1 hour for blocking and washed five times with Tween 20-PBS (manufactured by Wako Pure Chemical Industries Ltd.).
In order to reduce the backgrounds of measurement values, the diluted secondary antibody solution was mixed with 50 μg/mL of an anti-DNP mouse IgG1 antibody and incubated at room temperature for 1 hour for use.
(In general: An ELISA detects its analyte on a solid surface through an enzyme-linked reagent.)

Experiment [5] concerns the target B1. Put plainly: competitive ELISA, inhibition of hGas6-F binding to immobilised hAxl-hFc.
The target of experiment [6] is B1. The experiment can be described thus: SPR Biacore T100, captured antibody, Gas6 analyte, first test; reference line A-01 printed again at the head of the LV5 HV-series block (r24), same as r7. The protocol:
(§1) An anti-human IgG antibody was immobilized on a CM5 sensor chip (manufactured by GE Healthcare Japan Corp.) using Human Antibody Capture Kit (manufactured by GE Healthcare Japan Corp.) according to the attached manual. Each test antibody adjusted to 1 μg/mL was added for 10 seconds at a flow rate of 10 μL/min to flow cells. […] The measurement was performed by the […] method. The obtained sensorgram was analyzed using Bia Evaluation Software (manufactured by GE Healthcare Japan Corp.), and the kinetic constant of each antibody was calculated.
In general terms: SPR reads the build-up and loss of mass on a sensor chip optically.

In experiment [7] the target is B1. Put plainly: SPR Biacore T100, captured antibody, Gas6 analyte, retest. The protocol:
as §1
In this retest, unlike the test mentioned above, the number of antibodies to be measured and variations in the concentration of the analyte were decreased, and the assay was conducted for a short time (within several hours), instead of sufficiently leaving standing the analyte added to the vial. […] This minimizes the adsorption of the analyte to the vial and permits more accurate calculation of ka and KD values than that in the test mentioned above.

The term Kd denotes a measure of binding affinity in units of concentration. A word on the koff: it is a measure of how fast the partners let go of each other. As a reminder, the kon is the second-order rate constant of association. Usually EC50 stands for the concentration at which the effect is half-maximal. For orientation: IC50 means the concentration at which inhibition is half-maximal.

Turning to B1, the “luminescence intensity (Egr1-luciferase reporter, HEK293F forced to express human Mer)” value in experiment [1] is approximately 3 fold. Also, the “luminescence intensity (Egr1-luciferase reporter, HEK293F forced to express human Sky)” value in experiment [2] was approximately 3 fold.

As for B2, in experiment [3], the Kd was less than 1.87 nM, the koff is 0.000156 s⁻¹ and the kon was more than 83700 M⁻¹ s⁻¹. For the same molecule, in experiment [4], the concentration for a half-maximal effect (EC50) came to 0.0113 µg/mL. In addition, in experiment [5], the half-inhibitory concentration (IC50) is 0.0218 µg/mL. In experiment [6], the association rate constant (kon) was more than 83700 M⁻¹ s⁻¹. In addition, in experiment [7], the Kd amounted to 0.73 nM, the koff turned out to be 0.000135 s⁻¹ and the kon was found to be 186000 M⁻¹ s⁻¹.
